These results are taken from patent publication US20140112919A1.

Assay [1] deals with T1, recombinant hIL-10Ra: FLAG-tagged protein (human) (UniProt Q13651).
T1 sequence: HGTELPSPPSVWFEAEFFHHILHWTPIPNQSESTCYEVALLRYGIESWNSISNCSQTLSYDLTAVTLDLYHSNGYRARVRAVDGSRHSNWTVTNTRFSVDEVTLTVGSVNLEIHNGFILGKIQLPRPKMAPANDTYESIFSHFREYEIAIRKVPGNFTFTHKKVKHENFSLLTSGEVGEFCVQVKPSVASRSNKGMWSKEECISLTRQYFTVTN
Briefly: competitive ECLA (IGEN): unlabeled IL-10 titrated against hIL-10-biotin for binding to FLAG-tagged hIL-10Ra.

The target in assay [2] is rat anti hIL-10 mAb 12G8. Kind of assay: competitive ECLA (IGEN): unlabeled IL-10 titrated against hIL-10-biotin for binding to rat 12G8.

Sequence of recombinant cyno IL-10 (P79338 19-178 limits assumed): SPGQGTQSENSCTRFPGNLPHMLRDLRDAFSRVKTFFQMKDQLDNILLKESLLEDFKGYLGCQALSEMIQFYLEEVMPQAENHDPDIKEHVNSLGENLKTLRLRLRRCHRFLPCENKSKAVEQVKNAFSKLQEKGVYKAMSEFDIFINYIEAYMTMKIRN

Broadly, the IC50 is the midpoint of a concentration-inhibition curve. As for “recombinant cyno IL-10 (from UniProt P79338) (ligand)”, the results for the IC50 in assay [1] and in assay [2] were 17.6 nM and 6.6 nM, respectively.
Turning to “recombinant human IL-10 (from UniProt P22301) (ligand)”, the IC50 in assay [1] amounted to 2.9 nM; in assay [2] it was 4.7 nM.
In the same order, the values of “recombinant human IL-10-monomer (from UniProt P22301) (ligand)” are 7.2 nM and 7.1 nM.
